From patent US20120251557A1 (VERENIGING VOOR CHRISTELIJK HOGER ONDERWIJS …, published 2012) come the findings set out here.

For assay [1], the target named is CD45 on human peripheral blood lymphocytes (PBL) (human) (UniProt P08575). The assay can be described thus: cell-based or functional assay.
The target in assay [2] is human CD45BC isoform in transfected murine 300-19 cells (human) (UniProt P08575). The assay can be described thus: ELISA: isoform pulled down from transfectant lysate with panCD45 antibody, probed with MGL-Fc; ++ = high binding (OD 450 nm >0.25). On the technique in general: An ELISA detects its analyte on a solid surface through an enzyme-linked reagent.
Assay [3] deals with human CD45AB isoform in transfected murine 300-19 cells (human) (UniProt P08575). The assay is described as above.
The target in assay [4] is human CD45ABC isoform in transfected murine 300-19 cells (human) (UniProt P08575). The description is as above.
Chain of human CD45ABC isoform in transfected murine 300-19 cells (human) (P08575 26-1306): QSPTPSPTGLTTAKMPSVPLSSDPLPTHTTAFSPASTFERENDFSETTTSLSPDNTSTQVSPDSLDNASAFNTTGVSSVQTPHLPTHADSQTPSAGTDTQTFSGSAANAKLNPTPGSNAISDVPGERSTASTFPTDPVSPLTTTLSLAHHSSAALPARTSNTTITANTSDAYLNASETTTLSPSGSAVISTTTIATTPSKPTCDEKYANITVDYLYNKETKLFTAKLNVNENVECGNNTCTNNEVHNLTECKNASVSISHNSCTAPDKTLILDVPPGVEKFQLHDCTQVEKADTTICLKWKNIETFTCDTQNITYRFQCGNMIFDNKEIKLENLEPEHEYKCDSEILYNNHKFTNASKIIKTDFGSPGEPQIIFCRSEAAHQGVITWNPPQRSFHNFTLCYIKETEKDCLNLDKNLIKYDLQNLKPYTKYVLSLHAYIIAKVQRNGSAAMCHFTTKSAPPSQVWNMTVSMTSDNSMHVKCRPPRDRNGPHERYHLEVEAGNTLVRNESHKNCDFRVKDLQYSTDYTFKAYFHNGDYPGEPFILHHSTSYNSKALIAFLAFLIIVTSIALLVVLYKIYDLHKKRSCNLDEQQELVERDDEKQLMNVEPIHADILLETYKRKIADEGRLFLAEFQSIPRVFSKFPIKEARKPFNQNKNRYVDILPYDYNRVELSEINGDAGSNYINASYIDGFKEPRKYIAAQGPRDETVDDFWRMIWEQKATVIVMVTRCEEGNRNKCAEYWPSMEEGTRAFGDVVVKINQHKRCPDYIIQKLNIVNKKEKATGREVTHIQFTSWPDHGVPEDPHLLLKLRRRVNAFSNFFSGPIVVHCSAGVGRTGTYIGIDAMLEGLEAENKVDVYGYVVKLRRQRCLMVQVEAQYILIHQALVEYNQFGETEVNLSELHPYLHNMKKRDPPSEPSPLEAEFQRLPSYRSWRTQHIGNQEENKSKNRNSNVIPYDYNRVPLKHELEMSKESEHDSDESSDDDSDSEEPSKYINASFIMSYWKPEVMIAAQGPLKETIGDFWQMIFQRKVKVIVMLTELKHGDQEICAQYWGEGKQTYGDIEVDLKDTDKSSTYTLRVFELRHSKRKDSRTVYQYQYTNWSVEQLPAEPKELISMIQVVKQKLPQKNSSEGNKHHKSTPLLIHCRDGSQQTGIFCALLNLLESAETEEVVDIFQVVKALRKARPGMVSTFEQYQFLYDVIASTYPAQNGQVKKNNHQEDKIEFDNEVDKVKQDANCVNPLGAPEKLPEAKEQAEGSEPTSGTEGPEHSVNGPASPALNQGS
For assay [5], the target named is human CD45B isoform in transfected murine 300-19 cells (human) (UniProt P08575). Described as above.
For assay [6], the target named is CD45 on human peripheral blood lymphocytes (PBL) (human) (UniProt P08575). The assay can be described thus: ELISA: MGL-Fc-coated plate captures ligands from PBL lysate, detection with panCD45 antibody; ++ = high binding (OD 450 nm >0.25).
The target in assay [7] is C-containing CD45 isoforms from PBL (detected with anti-CD45RC). The assay can be described thus: ELISA: MGL-Fc-coated plate captures ligands from PBL lysate, detection with anti-CD45RC; ++ = high binding (OD 450 nm >0.25).
The target in assay [8] is A-containing CD45 isoforms from PBL (detected with anti-CD45RA). The assay can be described thus: ELISA: MGL-Fc-coated plate captures ligands from PBL lysate, detection with anti-CD45RA; + = low binding (OD 450 nm <0.25).
For assay [9], the target named is B-containing CD45 isoforms from PBL (detected with anti-CD45RB). The assay can be described thus: ELISA: MGL-Fc-coated plate captures ligands from PBL lysate, detection with anti-CD45RB; ++ = high binding (OD 450 nm >0.25).
Assay [10] has as its target T1, secreted tumor-associated MUC1 from the supernatant of ZR75 tumor cells (UniProt P15941 24-1097, limits assumed).
T1 construct: Coated on ELISA plates, or loaded on beads through MUC1 antibodies; also called secreted MUC1 from tumor cell line ZR75
As to the kind of experiment: ELISA on coated MUC1 from ZR75 supernatant. From the text: Example 2, FIG. 8. MGL-Fc detects secreted MUC1 from tumor cell line ZR75. FIG. 8A, MUC1 was harvested out of the supernatant of cultured ZR75 tumor cells and coated on ELISA plates. Both MGLFc and DC-SIGNFc were used to look for carbohydrate-binding epitopes expressed on tumor-associated MUC1. […] Furthermore, EGTA, which inhibits lectin binding to carbohydrates, illustrates that the recognition of MGL to MUC1 is carbohydrate mediated. FIG. 8B, in a second experiment, the tumor-associated MUC1 were coated on fluorescent beads coupled with MUC1 antibodies. Fluorescent MUC1-coupled beads were added to MGL-expressing CHO cells and untransfected CHO cells.
This experiment is depicted in FIG. 8 of Example 2. In FIG. 8A, MUC1 was harvested out of the supernatant of cultured ZR75 tumor cells and coated on ELISA plates. Both MGLFc and DC-SIGNFc were used to look for carbohydrate-binding epitopes expressed on tumor-associated MUC1. […] Furthermore, EGTA, which inhibits lectin binding to carbohydrates, illustrates that the recognition of MGL to MUC1 is mediated by the expression of carbohydrates.

Chain of CD45 on human peripheral blood lymphocytes (PBL) (human) (P08575 26-1306): as above
T1 sequence (P15941 24-1097 limits assumed): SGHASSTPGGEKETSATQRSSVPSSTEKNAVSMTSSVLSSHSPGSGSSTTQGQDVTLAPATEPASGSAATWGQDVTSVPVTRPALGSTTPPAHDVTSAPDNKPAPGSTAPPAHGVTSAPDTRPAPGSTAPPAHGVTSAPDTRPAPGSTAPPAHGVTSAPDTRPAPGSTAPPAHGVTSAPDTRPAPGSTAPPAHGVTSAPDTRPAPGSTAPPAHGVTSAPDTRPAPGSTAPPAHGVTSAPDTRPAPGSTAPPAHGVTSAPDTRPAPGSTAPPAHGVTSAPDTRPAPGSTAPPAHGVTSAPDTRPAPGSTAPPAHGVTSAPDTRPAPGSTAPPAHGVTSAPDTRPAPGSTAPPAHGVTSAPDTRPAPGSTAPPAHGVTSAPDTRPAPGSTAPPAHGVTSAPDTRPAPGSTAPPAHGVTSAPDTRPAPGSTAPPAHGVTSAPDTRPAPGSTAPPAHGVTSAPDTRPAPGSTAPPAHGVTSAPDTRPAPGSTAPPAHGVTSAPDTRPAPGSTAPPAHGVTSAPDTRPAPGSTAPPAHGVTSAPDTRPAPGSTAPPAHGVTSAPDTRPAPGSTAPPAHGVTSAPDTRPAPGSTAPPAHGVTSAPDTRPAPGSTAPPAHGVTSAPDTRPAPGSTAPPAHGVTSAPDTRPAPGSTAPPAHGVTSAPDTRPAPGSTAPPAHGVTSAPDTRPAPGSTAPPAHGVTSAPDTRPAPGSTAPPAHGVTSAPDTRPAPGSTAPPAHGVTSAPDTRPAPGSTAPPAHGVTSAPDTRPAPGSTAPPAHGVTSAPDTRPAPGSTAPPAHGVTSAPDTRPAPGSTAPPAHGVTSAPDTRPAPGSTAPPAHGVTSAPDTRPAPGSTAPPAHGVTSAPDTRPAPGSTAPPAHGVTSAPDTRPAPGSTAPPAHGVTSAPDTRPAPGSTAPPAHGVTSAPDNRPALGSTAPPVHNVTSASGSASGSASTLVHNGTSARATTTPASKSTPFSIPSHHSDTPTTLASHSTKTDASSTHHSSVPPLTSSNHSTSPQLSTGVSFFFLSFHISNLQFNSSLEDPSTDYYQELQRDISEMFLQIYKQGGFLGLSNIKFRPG

In turn, “Macrophage galactose-type lectin (MGL) on cells (CHO-MGL transfectants, monocyte-derived dendritic cells, dexamethasone-treated APC) (from UniProt Q8IUN9 1-316) (receptor)” had a proliferation of allogeneic CD4+ T cells ([methyl-3H]thymidine) in co-culture with dexamethasone-treated APC, with or without blocking anti-MGL antibodies in [1] of 3 fold.

As to “MGL-Fc (extracellular part of human MGL, amino acids 61-289, fused at the C-terminus to human IgG1-Fc) (from UniProt Q8IUN9 61-289; P01857 99-330) (Fc fusion)”, the OD 450 nm in assay [2], in assay [3], in assay [4], in assay [5], in assay [6] and in assay [7] was > 0.25 od each time. The OD 450 nm is < 0.25 od in [8] and > 0.25 od in assay [9].

B1: DC-SIGN-Fc (Fc fusion, UniProt Q9NNX6 64-404, looked up)
chain: PSSISQEQSRQDAIYQNLTQLKAAVGELSEKSKLQEIYQELTQLKAAVGELPEKSKLQEIYQELTRLKAAVGELPEKSKLQEIYQELTWLKAAVGELPEKSKMQEIYQELTRLKAAVGELPEKSKQQEIYQELTRLKAAVGELPEKSKQQEIYQELTRLKAAVGELPEKSKQQEIYQELTQLKAAVERLCHPCPWEWTFFQGNCYFMSNSQRNWHDSITACKEVGAQLVVIKSAEEQNFLQLQSSRSNRFTWMGLSDLNQEGTWQWVDGSPLLPSFKQYWNRGEPNNVGEEDCAEFSGNGWNDDKCNLAKFWICKKSAASCSRDEEQFLSPAPATPNPPPA
notes: not shown: Fc part not described
Turning to B1, the binding result in assay [10] is recorded as “no binding”.
